According to US20230026627A1, “Compositions and Methods of Manufacturing Star Polymers for Ligand Display and/or Drug Delivery” (Vaccitech North America, Inc., priority 2019, published 2023):

Key:
[1] = Turbidity (OD at 490 nm) / aggregation in aqueous buffer (PBS); type: physicochemical; conditions: turbidity (OD at 490 nm) >0.05 indicates aggregating
From the text: Soluble: Capable of becoming molecularly or ionically dispersed in a solvent to form a homogeneous solution. […] Solubility can be determined by visual inspection, by turbidity measurements or by dynamic light scattering.
It was unknown a priori what composition and magnitude of charge would be needed to fully solubilize polymer arms with high densities of amphiphilic or hydrophobic drug (D) molecules. Therefore, we attached high densities (˜10 mol %) of the small molecule aromatic heterocycle, 2BXy, which is a TLR-7/8a, to ˜40 kDa HPMA-based polymer arms (A) through a reactive monomer (E), wherein the polymer arm (A) comprised HPMA monomers as the majority hydrophilic monomer (B) and optionally included either 10 or 20 mol % charged monomers (C) comprising either negatively or positively charged functional groups.

[2] = Hydrodynamic radius (Rh), dynamic light scattering; type: physicochemical; conditions: Table 5

Substance | Turbidity, pH 7.4 ([1]; Table 5, di-block architecture) | Size, Rh (nm) [2] [nm] | Turbidity, pH 7.4 ([1]; Table 4, charged monomers, ~10 mol % TLR-7/8a)
PAMAM-g-poly[(HPMA-co-Ma-b-Ala-2BXy)-b-HPMA]-Pg [Compound 78] | 0.041 | 12.9 | –
N3-poly(HPMA-co-Ma-b-Ala-2BXy)-Pg [Compound 46] | Aggregate | >1000 | –
N3-poly(HPMA-co-Ma-b-Ala-2BXy-co-Ma-b-Ala-COOH)-Pg [Compound 48] | – | – | 0.043
N3-poly[(HPMA-co-Ma-b-Ala-2BXy)-b-HPMA]-Pg [Compound 62] | 0.039 | 6.6 | –
